Where a chain is given by its changes, count along the chain named. Numbers in names are those of the source.
T1: recombinant human CD73-His extracellular domain protein (soluble dimer) (human, UniProt P21589 27-547)
T1 sequence: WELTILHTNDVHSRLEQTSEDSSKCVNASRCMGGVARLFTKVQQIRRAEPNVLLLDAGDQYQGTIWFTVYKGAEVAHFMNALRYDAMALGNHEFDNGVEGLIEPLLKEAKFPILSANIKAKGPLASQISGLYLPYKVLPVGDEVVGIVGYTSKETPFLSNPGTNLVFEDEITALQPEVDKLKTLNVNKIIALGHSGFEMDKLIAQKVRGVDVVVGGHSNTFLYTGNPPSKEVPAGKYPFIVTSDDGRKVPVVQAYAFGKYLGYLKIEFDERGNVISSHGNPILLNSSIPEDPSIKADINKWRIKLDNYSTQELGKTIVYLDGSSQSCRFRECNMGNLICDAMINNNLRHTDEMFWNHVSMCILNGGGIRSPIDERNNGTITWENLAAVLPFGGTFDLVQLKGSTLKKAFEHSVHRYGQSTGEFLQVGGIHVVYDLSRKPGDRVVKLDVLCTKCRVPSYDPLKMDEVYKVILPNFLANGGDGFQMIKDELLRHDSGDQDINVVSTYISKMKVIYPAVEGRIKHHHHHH

T2: human CD73 expressed at the cell surface (human, UniProt P21589 27-549)
T2 sequence: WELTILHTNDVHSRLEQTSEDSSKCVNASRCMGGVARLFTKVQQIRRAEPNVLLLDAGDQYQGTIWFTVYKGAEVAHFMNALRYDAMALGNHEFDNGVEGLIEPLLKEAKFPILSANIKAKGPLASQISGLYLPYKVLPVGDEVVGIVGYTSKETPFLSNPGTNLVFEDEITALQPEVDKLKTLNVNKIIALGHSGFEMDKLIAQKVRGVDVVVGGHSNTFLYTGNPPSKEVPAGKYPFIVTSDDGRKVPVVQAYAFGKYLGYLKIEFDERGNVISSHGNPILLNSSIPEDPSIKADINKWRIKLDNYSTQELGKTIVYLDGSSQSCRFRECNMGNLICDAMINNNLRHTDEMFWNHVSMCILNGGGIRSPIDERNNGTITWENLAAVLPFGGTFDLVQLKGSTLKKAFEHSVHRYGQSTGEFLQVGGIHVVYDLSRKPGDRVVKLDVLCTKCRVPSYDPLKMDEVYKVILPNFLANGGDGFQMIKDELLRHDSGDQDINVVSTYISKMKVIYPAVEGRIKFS

T3: human CD73 mutant 17 (human, UniProt P21589 27-549)
T3 construct: Transfected in HEK293T cells
T3 chain: T2 sequence with A73S, E103A, K107A, E108N, A109S, K110A

B1: antibody 11E1 (antibody, human IgG1, V domains shown)
VH: EIQLQQSGPELVKPGASVKVSCKASGYAFTSYNMYWVKQSHGKSLEWIGYIDPYNGGTSYNQKFKGKATLTVDKSSSTAYMHLNSLTSEDSAVYYCARGYGNYKAWFAYWGQGTLVTVSA
VL: DAVMTQTPKFLLVSAGDRVTITCKASQSVTNDVAWYQQKPGQSPKLLIYYASNRYTGVPDRFTGSGYGTDFTFTISTVQAEDLAVYFCQQDYSSLTFGAGTKLELK
notes: Produced as chimeric human IgG1 with heavy chain N297Q (Kabat EU numbering); also called 1E11
B2: antibody 3C12 (antibody, human IgG1, V domains shown)
VH: B1 VH with E1Q, T30A, Y35N, E46D, T58S, Q62L, K63T, S77T
VL: DVVMTQTPKFLLVSAGDRVTITCKASQSVSNDVAWYQQKPGQSPKLLIYYASTRYTGVPDRFTGSGYGTDFTFTISTVQAEDLAVYFCQQDYSSLTFGAGTKLELKR
notes: Produced as chimeric human IgG1 with heavy chain N297Q (Kabat EU numbering); RTVAAP)
B3: antibody 6E1 (antibody, human IgG1, V domains shown)
VH: B1 VH with I2F, S44R, T58S, S85N, G101N
VL: B1 VL with D1S, A2I, V78M
notes: Produced as chimeric human IgG1 with heavy chain N297Q (Kabat EU numbering)

Tests used:
[1] = target: T1, recombinant human CD73-His …; experiment: cell-based or functional assay
[2] = target: T2, human CD73 expressed at the cell surface; experiment: cell-based or functional assay
[3] = target: T2, human CD73 expressed at the cell surface; experiment: cell-based or functional assay; remark: listed apart in the source
human CD73 mutant 17 = target: T3, human CD73 mutant 17; experiment: flow cytometry, HEK293T transfectants
[4] = target: T2, human CD73 expressed at the cell surface; experiment: flow cytometry titration on a human-CD73-expressing recombinant host cell line, median of fluorescence
[5] = target: T1, recombinant human CD73-His …; experiment: SPR (Biacore T100), antibody captured on Protein-A, soluble dimeric CD73 injected 1.23-300 nM, 1:1 model, bivalent affinity
Method: SPR measurements were performed on a Biacore T100 apparatus (Biacore GE Healthcare) at 25° C. In all Biacore experiments HBS-EP+(Biacore GE Healthcare) and NaOH 10 mM served as running buffer and regeneration buffer respectively. Sensorgrams were analyzed with Biacore T100 Evaluation software. Protein-A was purchase from (GE Healthcare). Human soluble dimeric CD73 proteins were cloned, produced and purified at Innate Pharma.
Protein-A proteins were immobilized covalently to carboxyl groups in the dextran layer on a Sensor Chip CMS. The chip surface was activated with EDC/NHS (N-ethyl-N′-(3-dimethylaminopropyl) carbodiimide hydrochloride and N-hydroxysuccinimide (Biacore GE Healthcare). Protein-A was diluted to 10 μg/ml in coupling buffer (10 mM acetate, pH 5.6) and injected until the appropriate immobilization level was reached (i.e. 2000 RU). Deactivation of the remaining activated groups was performed using 100 mM ethanolamine pH 8 (Biacore GE Healthcare).
Affinity study was carried out according to a standard Capture-Kinetic protocol recommended by the manufacturer (Biacore GE Healthcare kinetic wizard). Serial dilutions of human recombinant soluble dimeric CD73 proteins, ranging from 1.23 to 300 nM were sequentially injected over the captured anti-CD73 antibodies and allowed to dissociate for 10 min before regeneration. The entire sensorgram sets were fitted using the 1:1 kinetic binding model. Bivalent affinities and kinetic association and dissociation rate constants are shown below in Table 2 below.

| Binder | EC50 for CD73 blockade (enzymatic activity of soluble recombinant human CD73-his) [1] [µg/mL] | EC50 for neutralization of the enzymatic activity of cellular CD73 (MDA-MB-231 cells, free phosphate from AMP) [2] [µg/mL] | EC50 for neutralization of 5'-ectonucleotidase activity, mean over MDA-MB-231, H292 and A375 cells [3] [µg/mL] | EC70 for neutralization of 5'-ectonucleotidase activity, mean over MDA-MB-231, H292 and A375 cells [3] [µg/mL] | EC100 for neutralization of 5'-ectonucleotidase activity, mean over MDA-MB-231, H292 and A375 cells [3] [µg/mL] | binding result (human CD73 mutant 17) | EC50 (read off the curve) [4] [µg/mL] | Kd [5] [pM] |
| --- | --- | --- | --- | --- | --- | --- | --- | --- |
| B1 | 0.41 | 0.195 | 0.1 | 0.15 | 0.52 | no binding | ~0.4 | 822 |
| B2 | 0.41 | 0.21 | 0.14 | 0.18 | 0.3 | no binding | ~0.6 | 682 |
| B3 | 0.33 | 0.209 | 0.13 | 0.19 | 0.68 | no binding | ~0.4 | 819 |

— patent US20180030144A1 (INNATE PHARMA, published 2018)
